The text below walks through data of patent US20220031842A1 (JIANGSU HENGRUI MEDICINE, published 2022).

Experiment [1] has as its target T1, Fusion protein of LAG-3 extracellular region and hIgG1 Fc (human).
T1 construct: Limits of the signal peptide are marked only by lost underlining; also called LAG-3-Fc; LAG-3-Fc fusion protein
The experiment is described as follows: ELISA, LAG-3-Fc captured by anti-human Fc on plate (which fusion: inferred). From the text: (§1) The binding ability of anti-LAG-3 antibody to human LAG-3 protein was detected by ELISA assay. LAG-3 fusion protein with Fc or mFc tag was immobilized into 96-well microtiter plate by binding to anti-Fc or anti-mFc antibody coated on the microtiter plate, the strength of the signal after the addition of the antibody was used to determine the binding activity of the antibody to LAG-3, the specific experimental method is as follows.
(§2) The goat anti-human Fc antibody (Jackson Immuno Research, Cat No. 109-005-008) or goat anti-mouse Fc antibody (Sigma, Cat No. M3534-1ML) was diluted to a concentration of 2 μg/ml with PBS buffer at pH 7.4 (Sigma, Cat No. P4417-100TAB), and added to a 96-well plate at a volume of 50 μl/well and then, the plate was incubated in the incubator at 37° C. for 2 hours. After discarding the liquid, the plates were blocked with 200 μl/well of blocking solution containing 5% skim milk (Bright Dairy, skim milk powder) in PBS, and incubated in the incubator at 37° C. for 2.5 hours or overnight at 4° C. (16-18 hours). After blocking, the blocking solution was discarded and the plate was washed 5 times with PBST buffer (PH7.4 PBS containing 0.05% tween-20). […]
(In general: ELISA stands for enzyme-linked immunosorbent assay.)

For experiment [2], the target named is T1, Fusion protein of LAG-3 extracellular …. The experiment is described as above.
Source text: as §1, §2
This is another data set of the same source.

Experiment [3] has as its target T2, LAG-3 extracellular domain with a Flag tag (human, UniProt P18627 23-434).
T2 construct: also called LAG-3-Flag; LAG-3-Flag antigen
T2 sequence: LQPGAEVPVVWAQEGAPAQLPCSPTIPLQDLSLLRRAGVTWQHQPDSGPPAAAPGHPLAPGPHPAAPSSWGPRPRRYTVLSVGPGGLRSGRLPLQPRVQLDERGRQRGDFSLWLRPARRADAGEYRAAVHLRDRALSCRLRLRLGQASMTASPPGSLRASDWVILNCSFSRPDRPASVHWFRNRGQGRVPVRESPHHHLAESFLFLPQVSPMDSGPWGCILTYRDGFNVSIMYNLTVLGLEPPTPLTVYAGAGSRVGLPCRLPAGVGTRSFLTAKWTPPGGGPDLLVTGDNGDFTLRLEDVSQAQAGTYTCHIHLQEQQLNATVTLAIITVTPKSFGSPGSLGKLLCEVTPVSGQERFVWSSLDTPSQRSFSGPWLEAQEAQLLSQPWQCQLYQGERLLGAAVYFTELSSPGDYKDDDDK
As to the kind of experiment: SPR (Biacore), antibody captured on anti-mouse capture chip, LAG-3-Flag in flow. From the text: 1. […] Then, the LAG-3-Flag antigen (produced in-house, SEQ ID NO:1) was flowed through the surface of the biochip, and the reaction signal was detected in real time by using a Biacore instrument to obtain the binding and dissociation curves, the value of affinity was obtained by fitting, see above table 2. After each cycle of dissociation was finished in the experiment, the biochip was washed and regenerated with a regeneration solution provided in the mouse anti-capture kit.
A general note: SPR reads the build-up and loss of mass on a sensor chip optically.

In experiment [4] the target is T1, Fusion protein of LAG-3 extracellular …. As to the kind of experiment: competition: biotin-LAG-3-Fc binding to fixed Daudi cells, antibody titrated. Here is the method: Daudi cells (human leukemia cells, purchased from the cell bank in Chinese Academy of Sciences) were seeded in 96-well plate with a density of 3×10⁵/well. After centrifugation at 1000 rpm, the supernatant was discarded and then the plate was fixed with 4% PFA for 30 min at room temperature. The plate was washed 4 times with PBS after discarding the fixed solution, and the plate was blocked with 200 μl/well of blocking solution containing 5% skim milk (Bright Dairy, skim milk powder) diluted in PBS, and incubated at 37° C. for 2.5 hours. After blocking, the blocking solution was discarded and the plate was washed 5 times with PBST buffer (pH7.4 PBS containing 0.05% tween-20), added with 50 μl/well mixture of biotin-labeled (Biotin labeling kit, Dojindo Chemical, Cat No. LK03) LAG-3-Fc fusion protein (produced in-house, SEQ ID NO: 3) and gradient concentrations of the antibody to be tested, wherein the biotin-labeled LAG-3-Fc fusion protein has been diluted with sample diluent (PH7.4 PBS containing 1% BSA) at a final concentration of 0.4 μg/ml, and pre-mixed for an hour, then the plate was incubated at 37° C. for 1 h. The reaction solution was discarded and the plate was washed 5 times with PBST after incubation, 50 μl/well of HRP-labeled Streptavidin (Sigma, Cat No. 52438) diluted with sample diluent was added, and the plate was incubated at 37° C. for 1 h. After washing the plate 5 times with PBST, 50 μl/well of TMB chromogenic substrate (KPL, Cat No. 52-00-03) was added to each well, and incubated at room temperature for 5-15 min, the reaction was stopped by the addition of 50 μl 1M H₂SO₄ to each well. The OD value at a wavelength of 450 nm was read on NOVOStar microplate reader, and then the activity of the LAG-3 antibody in blocking the binding of the antigen to Daudi cells was calculated.
Target sequence in this assay (chain, as listed by the source limits assumed): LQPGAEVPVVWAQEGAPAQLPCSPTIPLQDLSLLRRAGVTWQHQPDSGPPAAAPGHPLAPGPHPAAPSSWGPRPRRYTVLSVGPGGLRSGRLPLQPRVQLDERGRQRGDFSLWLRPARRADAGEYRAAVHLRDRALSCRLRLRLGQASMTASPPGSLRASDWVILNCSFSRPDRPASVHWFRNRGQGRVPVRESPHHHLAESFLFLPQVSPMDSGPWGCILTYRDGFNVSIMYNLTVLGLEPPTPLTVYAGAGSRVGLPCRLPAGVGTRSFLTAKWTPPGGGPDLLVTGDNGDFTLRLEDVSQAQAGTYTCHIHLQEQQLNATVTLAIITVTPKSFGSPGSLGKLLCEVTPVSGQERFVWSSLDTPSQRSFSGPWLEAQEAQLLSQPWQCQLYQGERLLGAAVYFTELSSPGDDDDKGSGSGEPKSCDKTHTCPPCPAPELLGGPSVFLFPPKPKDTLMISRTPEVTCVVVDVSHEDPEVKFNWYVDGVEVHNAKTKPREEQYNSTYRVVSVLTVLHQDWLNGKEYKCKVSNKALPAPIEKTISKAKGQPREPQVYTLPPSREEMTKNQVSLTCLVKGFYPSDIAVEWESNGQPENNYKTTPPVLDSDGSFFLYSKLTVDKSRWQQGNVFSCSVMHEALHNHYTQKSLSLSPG

Where two headings read alike, the source gives them in different places.

B1: mAb229 (antibody, V domains shown)
VH: QIQLVQSGPELKKPGETVKISCKASGYTFTTSGMSWVKQAPGKGLKWMGWINTYSGVPTYADDFKGRFAFSLETSASTAYLQINNLKNEDTATYFCARDNYDARDVYYYAMDYWGQGTSVTVSS
VL: DIQMTQSPASLSVSVGETVTITCRASENIYSNLAWYQQKQGKSPQLLVYAATNLADGVPSRFSGSGSGTQYSLKINSLQSEDFGSYYCQHFWITPWTFGGGTKLEIK
notes: Murine hybridoma antibody; also called LAG-3 antibody mAb229; hybridoma clone mAb229
In general, EC50 refers to the concentration that produces a half-maximal response. Low values mean an effect from little substance, high ones a need for much substance. As usually defined, the Kd is the equilibrium constant for the complex coming apart. Broadly, the IC50 is the concentration that gives 50% inhibition. A high value points to weaker potency in that assay. Take B1: the EC50 in experiment [1] and in experiment [2] was 0.129 nM in each case. Besides, binding in experiment [3] was characterised by a dissociation constant (Kd) of 0.426 nM. For the same molecule, in experiment [4], the IC50 was 1.33 nM.

B2: mAb303 (antibody, V domains shown)
VH: EVQLQQSGPVLVKPGASVKMSCKASGYTLTDYYMNWVKQSHGKSLEWIGVINPYNGDTAYNQKFKGKATLTVDKSSNTAYMEINSLTSEDSAVYYCTRDDGYYDYYFDVWGTGTTVTVSS
VL: DIQMTQSPSSLSASLGERVILTCRASQDIGSRLNWLQQGPDGTFKRLIYATSTLDSGVPKRFSGSRSGSDFSLTISSLESEDFVDYYCLQLASSPPTFGGGTKLEIK
notes: Murine hybridoma antibody; also called LAG-3 antibody mAb303; hybridoma clone mAb303
Consider B2, for which the EC50 in experiment [1] and in experiment [2] was 0.172 nM throughout. In experiment [3], this molecule showed a Kd of 0.47 nM. This molecule had an IC50 in experiment [4] of 0.596 nM.
